T1: human TPO receptor (MPL) expressed on Ba/F3 cells (human, UniProt P40238 26-635)
T1 sequence (looked up): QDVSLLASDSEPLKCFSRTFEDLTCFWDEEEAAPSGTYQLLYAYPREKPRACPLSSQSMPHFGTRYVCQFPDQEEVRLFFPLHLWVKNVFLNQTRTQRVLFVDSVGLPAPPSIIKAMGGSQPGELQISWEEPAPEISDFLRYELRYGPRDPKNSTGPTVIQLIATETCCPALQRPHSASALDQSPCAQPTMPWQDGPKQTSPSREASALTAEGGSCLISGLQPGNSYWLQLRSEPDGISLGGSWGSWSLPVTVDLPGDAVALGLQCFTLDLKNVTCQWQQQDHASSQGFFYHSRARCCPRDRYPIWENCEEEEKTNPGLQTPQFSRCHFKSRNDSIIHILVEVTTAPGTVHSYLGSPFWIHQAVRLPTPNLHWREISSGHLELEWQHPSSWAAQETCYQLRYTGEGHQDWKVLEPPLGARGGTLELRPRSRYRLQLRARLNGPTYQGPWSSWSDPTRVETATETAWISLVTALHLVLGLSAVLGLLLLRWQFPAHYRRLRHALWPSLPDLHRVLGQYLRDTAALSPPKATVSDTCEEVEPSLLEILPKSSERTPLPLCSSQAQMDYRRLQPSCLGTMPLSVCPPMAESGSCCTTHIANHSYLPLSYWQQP

B1: reconstructed 12B5 single chain Fv (sc12B5), culture supernatant of COS-7 cells (scFv)
scFv: QVQLVQSGGGLVRPGGSLSLSCAVSGITLRTYGMHWVRQAPGKGLEWVAGISFDGRSEYYADSVQGRFTISRDSSKNTLYLQMNSLRAEDTAVYYCARGAHYGFDIWGQGTMVTVSSGGGGSGGGGSGGGGSDIQMTQSPSTLSASIGDRVTITCRASEGIYHWLAWYQQKPGKAPKLLIYKASSLASGAPSRFSGSGSGTDFTLTISSLQPDDFATYYCQQYSNYPLTFGGGTKLEIKDYKDDDDK
B2: sc12B5 monomer (scFv)
scFv: B1 scFv
B3: sc12B5 dimer (scFv)
scFv: B1 scFv
B4: antibody 12B5 (IgG) (antibody, V domains shown)
VH: QVQLVQSGGGLVRPGGSLSLSCAVSGITLRTYGMHWVRQAPGKGLEWVAGISFDGRSEYYADSVQGRFTISRDSSKNTLYLQMNSLRAEDTAVYYCARGAHYGFDIWGQGTMVTVSS
VL: DIQMTQSPSTLSASIGDRVTITCRASEGIYHWLAWYQQKPGKAPKLLIYKASSLASGAPSRFSGSGSGTDFTLTISSLQPDDFATYYCQQYSNYPLTFGGGTKLEIK
B5: 12B5Fab fragment (Fab, V domains shown)
VH: B4 VH
VL: B4 VL

Tests used:
[1] = biological target: human TPO receptor (MPL) expressed on Ba/F3 cells (human) (UniProt P40238); experiment: cell-based or functional assay
[2] = biological target: T1, human TPO receptor (MPL) expressed on …; experiment: cell-based or functional assay

Molecule | ED50, agonist activity, proliferation of BaF/mpl cells (WST-8) [1] | ED50, TPO-like agonist activity, proliferation of BaF/mpl cells (WST-8) [2] | agonist activity, fold against monovalent sc12B5 [2]
human TPO (R&D Systems) (from UniProt P40225 22-353) (ligand) | 0.027 nM |  | 
B1 |  | 75 nM | 
B2 |  | 4440 nM | 
B3 |  | 10.1 nM | ~400 fold
B4 |  | 29 nM | 
B5 |  | 34700 nM | 

Source: patent EP1327680B1 (CHUGAI SEIYAKU KABUSHIKI KAISHA, dated 2008)
